Measurements reported in PMC9708791.

Biological target: PER2 (V5-Per2) (UniProt O15055)
Assay: co-immunoprecipitation of V5-Per2 and HA-GSK3β
Conditions: reference: wild-type HA-GSK3β; sites S9

GSK3β (HA-tagged, Addgene plasmid) (from UniProt P49841) HA-GSK3β S9A
binding against the reference: lost
